Experimental data as given in US20240067758A1 (UCB, published 2024).

These binders were tested against T1, Human IL22 (human, UniProt Q9GZX6 34-179) (assay: SPR (Biacore); Fab variant, human IL22).
T1 construct: IL22 of the Biacore and cell assays
T1 sequence: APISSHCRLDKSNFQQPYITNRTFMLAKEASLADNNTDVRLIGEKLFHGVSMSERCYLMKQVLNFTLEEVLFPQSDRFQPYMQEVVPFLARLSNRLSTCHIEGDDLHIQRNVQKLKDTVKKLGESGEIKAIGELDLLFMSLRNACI

Binder	Kd
11041gL1 C91S gH1 D54E (Fab, V domains shown, V-regions only; also called 11041gL2gH3) VH: EVQLVESGGGLVQPGGSLRLSCAVSGFSLSSYAMIWVRQAPGKGLEWIGIIDIEGSTYYASWAKGRFTISRDSSKNTVYLQMNSLRAEDTAVYYCARDRFVGVDIFDPWGQGTLVTVSS VL: AVVLTQSPSSLSASVGDRVTITCQASEDIYTNLAWYQQKPGKAPKLLIYWASTLASGVPSRFSGSGSGTDFTLTISSLQPEDFATYYCQASVYGNSADSRYTFGGGTKVEIK	0.0281 nM
11041gL1 C91S S96AgH15 (Fab, V domains shown, V-regions only; also called 11041gL10gH15; gH15 = gH8 D54E) VH: EVQLVESGGGLVQPGGSLRLSCAVSGFSLSSYAMIWVRQAPGKGLEWIGIIDIEGSTYYASWAKGRFTISRDSSKNTLYLQMNSLRAEDTAVYYCARDRFVGVDIFDPWGQGTLVTVSS VL: AVVLTQSPSSLSASVGDRVTITCQASEDIYTNLAWYQQKPGKAPKLLIYWASTLASGVPSRFSGSGSGTDFTLTISSLQPEDFATYYCQASVYGNAADSRYTFGGGTKVEIK	0.079 nM
11041gL1 C91S S96AgH17 (Fab, V domains shown, V-regions only; also called 11041gL10gH17; gH17 = gH11 D54E) VH: EVQLVESGGGLVQPGGSLRLSCAVSGFSLSSYAMIWVRQAPGKGLEWVGIIDIEGSTYYASWAKGRFTISRDNSKNTLYLQMNSLRAEDTAVYYCARDRFVGVDIFDPWGQGTLVTVSS VL: AVVLTQSPSSLSASVGDRVTITCQASEDIYTNLAWYQQKPGKAPKLLIYWASTLASGVPSRFSGSGSGTDFTLTISSLQPEDFATYYCQASVYGNAADSRYTFGGGTKVEIK	0.0398 nM
11041gL1 C91S S96AgH18 (Fab, V domains shown, V-regions only; also called 11041gL10gH18; gH18 = gH12 D54E) VH: EVQLVESGGGLVQPGGSLRLSCAVSGFSLSSYAMIWVRQAPGKGLEWISIIDIEGSTYYASWAKGRFTISRDNSKNTLYLQMNSLRAEDTAVYYCARDRFVGVDIFDPWGQGTLVTVSS VL: AVVLTQSPSSLSASVGDRVTITCQASEDIYTNLAWYQQKPGKAPKLLIYWASTLASGVPSRFSGSGSGTDFTLTISSLQPEDFATYYCQASVYGNAADSRYTFGGGTKVEIK	0.0454 nM
11041gL1 C91S gH9 (Fab, V domains shown, V-regions only; also called 11041gL2gH9) VH: EVQLVESGGGLVQPGGSLRLSCAASGFSLSSYAMIWVRQAPGKGLEWIGIIDIDGSTYYASWAKGRFTISRDSSKNTVYLQMNSLRAEDTAVYYCARDRFVGVDIFDPWGQGTLVTVSS VL: AVVLTQSPSSLSASVGDRVTITCQASEDIYTNLAWYQQKPGKAPKLLIYWASTLASGVPSRFSGSGSGTDFTLTISSLQPEDFATYYCQASVYGNSADSRYTFGGGTKVEIK	0.0114 nM
11041gL1 N95D gH1 (Fab, V domains shown, V-regions only; also called 11041gL8gH1) VH: EVQLVESGGGLVQPGGSLRLSCAVSGFSLSSYAMIWVRQAPGKGLEWIGIIDIDGSTYYASWAKGRFTISRDSSKNTVYLQMNSLRAEDTAVYYCARDRFVGVDIFDPWGQGTLVTVSS VL: AVVLTQSPSSLSASVGDRVTITCQASEDIYTNLAWYQQKPGKAPKLLIYWASTLASGVPSRFSGSGSGTDFTLTISSLQPEDFATYYCQACVYGDSADSRYTFGGGTKVEIK	0.129 nM
11041gL1 S96A gH1 (Fab, V domains shown, V-regions only; also called 11041gL9gH1) VH: EVQLVESGGGLVQPGGSLRLSCAVSGFSLSSYAMIWVRQAPGKGLEWIGIIDIDGSTYYASWAKGRFTISRDSSKNTVYLQMNSLRAEDTAVYYCARDRFVGVDIFDPWGQGTLVTVSS VL: AVVLTQSPSSLSASVGDRVTITCQASEDIYTNLAWYQQKPGKAPKLLIYWASTLASGVPSRFSGSGSGTDFTLTISSLQPEDFATYYCQACVYGNAADSRYTFGGGTKVEIK	0.2 nM
11041gL1 S96A gH1 D54E (Fab, V domains shown, V-regions only; also called 11041gL9gH3) VH: EVQLVESGGGLVQPGGSLRLSCAVSGFSLSSYAMIWVRQAPGKGLEWIGIIDIEGSTYYASWAKGRFTISRDSSKNTVYLQMNSLRAEDTAVYYCARDRFVGVDIFDPWGQGTLVTVSS VL: AVVLTQSPSSLSASVGDRVTITCQASEDIYTNLAWYQQKPGKAPKLLIYWASTLASGVPSRFSGSGSGTDFTLTISSLQPEDFATYYCQACVYGNAADSRYTFGGGTKVEIK	0.0888 nM
11041gL1gH1 (Fab, V domains shown, Human Fab format (human kappa, human gamma-1 CH1); V-regions only) VH: EVQLVESGGGLVQPGGSLRLSCAVSGFSLSSYAMIWVRQAPGKGLEWIGIIDIDGSTYYASWAKGRFTISRDSSKNTVYLQMNSLRAEDTAVYYCARDRFVGVDIFDPWGQGTLVTVSS VL: AVVLTQSPSSLSASVGDRVTITCQASEDIYTNLAWYQQKPGKAPKLLIYWASTLASGVPSRFSGSGSGTDFTLTISSLQPEDFATYYCQACVYGNSADSRYTFGGGTKVEIK	0.642 nM
11041gL1gH1 D54E (Fab, V domains shown, V-regions only; also called 11041gL1gH3) VH: EVQLVESGGGLVQPGGSLRLSCAVSGFSLSSYAMIWVRQAPGKGLEWIGIIDIEGSTYYASWAKGRFTISRDSSKNTVYLQMNSLRAEDTAVYYCARDRFVGVDIFDPWGQGTLVTVSS VL: AVVLTQSPSSLSASVGDRVTITCQASEDIYTNLAWYQQKPGKAPKLLIYWASTLASGVPSRFSGSGSGTDFTLTISSLQPEDFATYYCQACVYGNSADSRYTFGGGTKVEIK	0.166 nM
11041gL1gH1 D107E (Fab, V domains shown, V-regions only; also called 11041gL1gH4) VH: EVQLVESGGGLVQPGGSLRLSCAVSGFSLSSYAMIWVRQAPGKGLEWIGIIDIDGSTYYASWAKGRFTISRDSSKNTVYLQMNSLRAEDTAVYYCARDRFVGVDIFEPWGQGTLVTVSS VL: AVVLTQSPSSLSASVGDRVTITCQASEDIYTNLAWYQQKPGKAPKLLIYWASTLASGVPSRFSGSGSGTDFTLTISSLQPEDFATYYCQACVYGNSADSRYTFGGGTKVEIK	0.657 nM
11041gL1gH1 G55A (Fab, V domains shown, V-regions only; also called 11041gL1gH2) VH: EVQLVESGGGLVQPGGSLRLSCAVSGFSLSSYAMIWVRQAPGKGLEWIGIIDIDASTYYASWAKGRFTISRDSSKNTVYLQMNSLRAEDTAVYYCARDRFVGVDIFDPWGQGTLVTVSS VL: AVVLTQSPSSLSASVGDRVTITCQASEDIYTNLAWYQQKPGKAPKLLIYWASTLASGVPSRFSGSGSGTDFTLTISSLQPEDFATYYCQACVYGNSADSRYTFGGGTKVEIK	0.627 nM
11041gL1gH5 (Fab, V domains shown, V-regions only) VH: EVQLVESGGGLVQPGGSLRLSCAVSGFSLSSYAMIWVRQAPGKGLEWIGIIDIDGSTYYASWAKGRFTISRDNSKNTVYLQMNSLRAEDTAVYYCARDRFVGVDIFDPWGQGTLVTVSS VL: AVVLTQSPSSLSASVGDRVTITCQASEDIYTNLAWYQQKPGKAPKLLIYWASTLASGVPSRFSGSGSGTDFTLTISSLQPEDFATYYCQACVYGNSADSRYTFGGGTKVEIK	0.378 nM
11041gL1gH8 (Fab, V domains shown, V-regions only) VH: EVQLVESGGGLVQPGGSLRLSCAVSGFSLSSYAMIWVRQAPGKGLEWIGIIDIDGSTYYASWAKGRFTISRDSSKNTLYLQMNSLRAEDTAVYYCARDRFVGVDIFDPWGQGTLVTVSS VL: AVVLTQSPSSLSASVGDRVTITCQASEDIYTNLAWYQQKPGKAPKLLIYWASTLASGVPSRFSGSGSGTDFTLTISSLQPEDFATYYCQACVYGNSADSRYTFGGGTKVEIK	0.274 nM
11041gL6 C91S gH8 D54E (Fab, V domains shown, V-regions only; also called 11041gL11gH15) VH: EVQLVESGGGLVQPGGSLRLSCAVSGFSLSSYAMIWVRQAPGKGLEWIGIIDIEGSTYYASWAKGRFTISRDSSKNTLYLQMNSLRAEDTAVYYCARDRFVGVDIFDPWGQGTLVTVSS VL: AVQLTQSPSSLSASVGDRVTITCQASEDIYTNLAWYQQKPGKAPKLLIYWASTLASGVPSRFSGSGSGTDFTLTISSLQPEDFATYYCQASVYGNSADSRYTFGGGTKVEIK	0.106 nM
11041gL6 C91S gH11 D54E (Fab, V domains shown, V-regions only; also called 11041gL11gH17) VH: EVQLVESGGGLVQPGGSLRLSCAVSGFSLSSYAMIWVRQAPGKGLEWVGIIDIEGSTYYASWAKGRFTISRDNSKNTLYLQMNSLRAEDTAVYYCARDRFVGVDIFDPWGQGTLVTVSS VL: AVQLTQSPSSLSASVGDRVTITCQASEDIYTNLAWYQQKPGKAPKLLIYWASTLASGVPSRFSGSGSGTDFTLTISSLQPEDFATYYCQASVYGNSADSRYTFGGGTKVEIK	0.0516 nM
11041gL6 C91S gH12 D54E (Fab, V domains shown, V-regions only; also called 11041gL11gH18) VH: EVQLVESGGGLVQPGGSLRLSCAVSGFSLSSYAMIWVRQAPGKGLEWISIIDIEGSTYYASWAKGRFTISRDNSKNTLYLQMNSLRAEDTAVYYCARDRFVGVDIFDPWGQGTLVTVSS VL: AVQLTQSPSSLSASVGDRVTITCQASEDIYTNLAWYQQKPGKAPKLLIYWASTLASGVPSRFSGSGSGTDFTLTISSLQPEDFATYYCQASVYGNSADSRYTFGGGTKVEIK	0.0444 nM
11041gL6gH1 (Fab, V domains shown, V-regions only) VH: EVQLVESGGGLVQPGGSLRLSCAVSGFSLSSYAMIWVRQAPGKGLEWIGIIDIDGSTYYASWAKGRFTISRDSSKNTVYLQMNSLRAEDTAVYYCARDRFVGVDIFDPWGQGTLVTVSS VL: AVQLTQSPSSLSASVGDRVTITCQASEDIYTNLAWYQQKPGKAPKLLIYWASTLASGVPSRFSGSGSGTDFTLTISSLQPEDFATYYCQACVYGNSADSRYTFGGGTKVEIK	0.369 nM
11041gL7 C91S S96A gH8 D54E (Fab, V domains shown, V-regions only; also called 11041gL14gH15) VH: EVQLVESGGGLVQPGGSLRLSCAVSGFSLSSYAMIWVRQAPGKGLEWIGIIDIEGSTYYASWAKGRFTISRDSSKNTLYLQMNSLRAEDTAVYYCARDRFVGVDIFDPWGQGTLVTVSS VL: AIQLTQSPSSLSASVGDRVTITCQASEDIYTNLAWYQQKPGKAPKLLIYWASTLASGVPSRFSGSGSGTDFTLTISSLQPEDFATYYCQASVYGNAADSRYTFGGGTKVEIK	0.104 nM
11041gL7 C91S S96A gH11 D54E (Fab, V domains shown, V-regions only; also called 11041gL14gH17) VH: EVQLVESGGGLVQPGGSLRLSCAVSGFSLSSYAMIWVRQAPGKGLEWVGIIDIEGSTYYASWAKGRFTISRDNSKNTLYLQMNSLRAEDTAVYYCARDRFVGVDIFDPWGQGTLVTVSS VL: AIQLTQSPSSLSASVGDRVTITCQASEDIYTNLAWYQQKPGKAPKLLIYWASTLASGVPSRFSGSGSGTDFTLTISSLQPEDFATYYCQASVYGNAADSRYTFGGGTKVEIK	0.0617 nM
11041gL7 C91S S96A gH12 D54E (Fab, V domains shown, V-regions only; also called 11041gL14gH18) VH: EVQLVESGGGLVQPGGSLRLSCAVSGFSLSSYAMIWVRQAPGKGLEWISIIDIEGSTYYASWAKGRFTISRDNSKNTLYLQMNSLRAEDTAVYYCARDRFVGVDIFDPWGQGTLVTVSS VL: AIQLTQSPSSLSASVGDRVTITCQASEDIYTNLAWYQQKPGKAPKLLIYWASTLASGVPSRFSGSGSGTDFTLTISSLQPEDFATYYCQASVYGNAADSRYTFGGGTKVEIK	0.0676 nM
